Drawing on article PMC6706469, this text covers fraction in the pellet (pellet relative to pellet plus supernatant) for two substances.

For test [1], the target named is P37 (trypanosome-specific protein), endogenous (Trypanosoma brucei (endogenous in T. brucei cells)). The experiment in a line: co-IP; whole-cell extract of 3×Ty-TbL11 T. brucei cells, with RNase A added to digest cellular RNA; beads with antibody to the target (anti-P34/P37, anti-TbL5 or anti-TbRpf2); anti-Ty Western blot of pellet and supernatant; amount in the pellet relative to pellet plus supernatant. Background: A western blot detects proteins with antibodies after separation by electrophoresis.

Test [2] deals with TbL5 (Trypanosoma brucei ribosomal protein L5), endogenous (Trypanosoma brucei (endogenous in T. brucei cells)). Described as above.
For test [3], the target named is P34 (trypanosome-specific protein), endogenous (Trypanosoma brucei (endogenous in T. brucei cells)). Described as above.
Test [4] addresses TbRpf2 (Trypanosoma brucei homologue of Rpf2), endogenous (Trypanosoma brucei (endogenous in T. brucei cells)). The test is described as above.
Test [5] concerns the target P37 (trypanosome-specific protein), endogenous (Trypanosoma brucei (endogenous in T. brucei cells)). Put plainly: co-IP; whole-cell extract of 3×Ty-TbL11 T. brucei cells, without RNase A; beads with antibody to the target (anti-P34/P37, anti-TbL5 or anti-TbRpf2); anti-Ty Western blot of pellet and supernatant; amount in the pellet relative to pellet plus supernatant.
Test [6] has as its target TbL5 (Trypanosoma brucei ribosomal protein L5), endogenous (Trypanosoma brucei (endogenous in T. brucei cells)). The test is described as above.
In test [7] the target is P34 (trypanosome-specific protein), endogenous (Trypanosoma brucei (endogenous in T. brucei cells)). The description is as above.
Test [8] deals with TbRpf2 (Trypanosoma brucei homologue of Rpf2), endogenous (Trypanosoma brucei (endogenous in T. brucei cells)). The description is as above.
Test [9] addresses Recombinant TbRpf2 (Trypanosoma brucei). Put plainly: co-IP; in vitro, recombinant TbL11 incubated with the recombinant target, with in vitro-transcribed 5S rRNA added; precipitated with antibody to the target; anti-His Western blot; amount in the pellet relative to pellet plus supernatant.
Test [10] has as its target Recombinant TbL5 (Trypanosoma brucei). Described as above.
Test [11] has as its target Recombinant P34 (Trypanosoma brucei). The test is described as above.
Test [12] concerns the target Recombinant TbRpf2 (Trypanosoma brucei). The experiment in a line: co-IP; in vitro, recombinant TbL11 incubated with the recombinant target, without 5S rRNA; precipitated with antibody to the target; anti-His Western blot; amount in the pellet relative to pellet plus supernatant.
In test [13] the target is Recombinant TbL5 (Trypanosoma brucei). Described as above.
The target in test [14] is Recombinant P34 (Trypanosoma brucei). The test is described as above.

For the substance “3×Ty-TbL11 (Ty-tagged Trypanosoma brucei ribosomal protein L11) (natural protein)”, the fraction in the pellet (pellet relative to pellet plus supernatant) in [1] was 0.53; in test [2] it was 0.67; in test [3], 0.53; in test [4] it was 0.58; in [5], 0.16; in test [6], 0.53. The fraction in the pellet (pellet relative to pellet plus supernatant) in test [7] is 0.16; in test [8], 0.07.
For the substance “Recombinant TbL11 (Trypanosoma brucei ribosomal protein L11) (natural protein)”, the fraction in the pellet (pellet relative to pellet plus supernatant) in test [9] is 0.83; in [10], 0.9; in [11], 0.85; in test [12] it was 0.86; in test [13], 0.92; in test [14], 0.96.
